# The supplement of paper PMC9170038
# System: K4 kissing-loop RNA reporter
# Assay: apparent KD of K4 kissing-loop reporter; higher = weaker reporter binding
# Conditions: Eterna round: R107; input ligand: tryptophan 2.4 mM
# Protocol: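 RNA-MaP round R107: designed RNA switches with theophylline, tryptophan, arginine or FMN aptamers are transcribed on-chip within common flanks. They are titrated with a labelled K4 kissing-loop RNA reporter in RNA-MaP buffer (100 mM Tris pH 7.5, 80 mM KCl, 4 mM MgCl2), without ligand or with the indicated ligand. Median apparent KD per design.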
# 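Also: bound reporter read as fluorescence of individual clusters on recovered sequencing chips by microscopy, with normalized cluster intensities fitted with a binding model.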
row,Sequence,apparent KD of K4 kissing-loop reporter
1,AUUAUAAAGACGGCCGCCACUGAGAGUAGUGAUGUUACUCUUUUCCUUUAGAUAUUAUAUUUUAUCAGGACCGGGUUUUUUGAUU [JR_Nu_ExcTryptoB_Sub025],91.9 nM
2,AGGUUUUGAUUAGGAUAUGCACUGACGACGAGAAUAUAGUGAUGUUAUAUAAUACGAAUUAGUAGAGUAGAAGGGAUUGAGGUUU [SSFMNB.X],286 nM
3,GGAUCCACCAGUGAUGUUGGAGUAAUCUCCAAGGAUAUGACGAAAGUCAGAAGGUGGUAAAUAGACGUCAAAGACGUCGGAUCCA [FmnA 22 #SwitchBubble #K4Early],69 nM
4,AUCUAUGAGCGAGGAUAUGCAUAACGCGAGUGAUGUUCGCGAUGUGGGCGUAAUUGAUAAAAUGAAGCAGAAGGCGCACUCAUGA [Exclusion - FMW B / B],120 nM
5,UGUGUUUACCUGACUCAGUGAUGUUGAGAAGGAGCGUGCUAAGGCACAGGUAGGUCGCUCAACCUAAAUUCAGGUGAGCACUAAA,207 nM
6,UUACUGCCCAGUGAUGUUGGGUAUCGGCGGCGAGGACCGGUACGGCCGCCACUCGGCGCACAGGCGGAGUGAUGUUUCGCUUAAA [Same State Tryptophan A GF 12],186 nM
7,AUGUACAUUCUCAGUGAUGUUGGGUUGUAACGAGGACCGGUACGGCCGCCACUCGGGAUGUGGUAUAUAGAUGUAUGUGUAGCAU [skye_SS_TA],439 nM
8,CCUAUCUCAUACGAUACCAGUCUACGAUAUUUUAUCGUUGCCAUCACCGAGUGAUGUUCGGACCCUUGGCAGCGUAUGGGAUAGG [Ex Theophylline B K4 5],346 nM
9,UGCUUUAUCAGAAGGAGCGGGUUGUUCAUAAUAAUAAUCAGUGAUGUUGAUAUAUGAUGAUUCCAGGUAGGUCGCUGAUAUAGCU [KL-XARG-B2],238 nM
10,UAAUAAAUUCCAGCUAUAUCACUCUUCGAAGGAGCGGACGAAAGUCCAGGUAGGUCGCGAAGAGUGAUGUUCUUUGCGGCGCUGG [Omei KL Arginine A Exc A v5],111 nM
11,GCUAGGAUGGCAGGAUAUAGUUCGUGAGUGAUGUUCAAAGAACUAAGAGGGACACCUCAUUCUAAACUAGAAGGGCCAUCCUAGC,337 nM
12,AUAAUUAUAUAGAAAUAUAUAAUUAUAUAACGAGGACCGGUACGGCCGCCACUCGUGCCGGGCAUAAAAUGAGUGAUGUUCAUGU [KL-XTryp-A7 #analogue],198 nM
13,UGUAUGUGAUGUGAUACCAGUGAAGAGCCAGUGAUGUUGGUAGAACUGGUAUAUAAAUAACACCCUUGGCAGCACAAUCACGUAC [whbob_Ex_Theo_B_sa99],314 nM
14,AGCCGUCUAAGUGAUGUUUAGGCAUGUCAGCGAGGACCGGUACGGCCGCCACUCGUGCUAUUGAGAUUUCGGGUAGCCCACGUAG [theeternabot_sameState_KL_Trp_A_20],163 nM
15,GUGAAGGAGCUGCAGUGAUGUUGCAGAAACUAGGAUAUCAGGAAACUGAGAAGGAGUCAACUCCUUCACCUAAAUACUGCAGAAA [KL-SSFMN-A23],147 nM
16,AUAAUAAAGACGGCCGCCACUGAGAGUAGUGAUGUUACUCUUUUCCUUUAGAAAUAAUAUUUUAUCAGGACCGGGUUUUUUGAAU [JR_Nu_ExcTryptoB_Sub026],92 nM
17,CAUACGCAUGGAGGAUAUGAGAUUUCUCAUAUUAUUUAAUAUUCUCAGUGAUGUUGAGAAUUAAACUCAGAAGGCCAUGUGUAUG [Ex FMN B 4],163 nM
18,ACGUAGUUCUAGGAUACCAGCCAAGGAGGGUAGGACAAAAGUCCUGUAGCCAGUGAUGUUGGCCCUUGGCAGCCUAGAACUACGA [Omei KL Theo B Exc B v3],151 nM
19,AGGUACUACGGAAGGAGCGCACCAGUGAUGUUGGUGUGUGACCGUGACAUGGCAGUCAAGGUGCAGGUAGGUCGCCGUGGCCUUU [Anatartibe],115 nM
20,UGACUACAAAAGGAAUAAUCCUAGUGAUGUUAGGAUAUGCUGAUAAGCAGAAGGAACGGAGAUCGAAAGAUCUCAAAUGUAGUCU [whbob_Ex_FMNA__2th191],86 nM
21,UCGGCAAAGUCGGCCGCCACUCCGGGCCCUAUAAAUGGGCGCAGUGAUGUUGCGGCUAGGCCUCUGAGGACCGGGACUUUGUAAA [Atordied],219 nM
22,UUGAGCCUGACGAAAGUCAGGCUCUGCGAGCGAGGACCGGUACGGCCGCCACUCGGUGCAGUGAUGUUGCAUGGCCGCAAGGCCG [#2 Exclusion - Tryptophan A Attempt #14 (HarryS)],456 nM
23,ACUAUCGAAAGAUAGUUCCCAGAGCUAGUAGAGGAUAUCUGGAAACAGAGAAGGCUACAAGAGUGAUGUUCUUCUAGCUUUGGGA,349 nM
24,CGUUUAUAGCAGGAUACCAGUACGGAUAAAGUACGUUAAUAGUAGAGUGAUGUUCUAAAGUACCCUUGGCAGCUUAGAGUGAGUG [ExTheophylB.O],78.1 nM
25,GCAGUGAUGUUGCGGAUGUACAGUGGCGUGCGAGGACCGGUACGGCCGCCACUCGUACAGAGCCAGCUAAUACAUCGAUUGGUGA [whbob_SS_Tryp_A_m7],212 nM
26,AGUGAUGUUGUGUUAUGCAAGGGAAGUGAUCGAGGACCGGUACGGCCGCCACUCGAGUGAUGAGUGAGUGAUGUUUGUUUAGGGA [ffgmullin],401 nM
27,GGAAAGCCAGUGAUGUUGGCAUAAACUGAAGGAGCGCGUGAAAACGCAGGUAGGUCGCAGAACCUUGCCAACUAUAUUAUUUACC [Ex Arginine A K4 21],135 nM
28,GCAGUGAUGUUGCUGAUGUACAGUGGGAUACGAGGACCGGUACGGCCGCCACUCGUACAGAACUUAUUAAUACAUCGAUAAGUGA [XIV],687 nM
